This assay deals with ANTXR2 expressed in RAW264.7 cells, Q6DFX2. Nature of the assay: cell-based or functional assay.

From patent US20090054317A1 come the findings set out here.

ANTXR2 expressed in RAW264.7 cells, Q6DFX2, sequence (Q6DFX2 32-487 limits assumed): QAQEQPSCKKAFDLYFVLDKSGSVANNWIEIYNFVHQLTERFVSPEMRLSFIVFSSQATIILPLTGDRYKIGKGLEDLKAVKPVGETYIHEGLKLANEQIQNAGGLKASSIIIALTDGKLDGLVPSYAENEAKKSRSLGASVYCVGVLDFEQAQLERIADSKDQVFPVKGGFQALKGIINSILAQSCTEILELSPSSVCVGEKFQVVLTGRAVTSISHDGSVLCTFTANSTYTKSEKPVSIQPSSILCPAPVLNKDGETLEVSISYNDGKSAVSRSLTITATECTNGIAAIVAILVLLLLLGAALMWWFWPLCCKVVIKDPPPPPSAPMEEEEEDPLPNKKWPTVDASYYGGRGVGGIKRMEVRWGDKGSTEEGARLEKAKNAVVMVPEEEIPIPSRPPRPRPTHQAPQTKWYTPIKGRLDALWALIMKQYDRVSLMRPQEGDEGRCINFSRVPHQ

For AWPLSQLDHSYNC (modifications not checked) [… (SEQ ID NO: 3)-functionalized liposomes], the Activity against toxin-induced cell death in RAW264.7 cells (IC50) turned out to be 40 nM and the enhancement in the activity of the peptide by polyvalency (against the monovalent peptide) is above 50000 fold.
